The text below walks through data of patent publication US20250313615A1 (ANNEXON, published 2025).

In this experiment the target is T1, complement factor C1q (Homo sapiens, UniProt P02745 23-245; P02746 28-253; P02747 29-245).
T1 construct: also called soluble C1q
Kind of experiment: in vivo, phase 1b interim analysis in four lupus nephritis patients; pharmacodynamic read-out.

T1 sequence (P02745 23-245 limits assumed, chain 1 of 3): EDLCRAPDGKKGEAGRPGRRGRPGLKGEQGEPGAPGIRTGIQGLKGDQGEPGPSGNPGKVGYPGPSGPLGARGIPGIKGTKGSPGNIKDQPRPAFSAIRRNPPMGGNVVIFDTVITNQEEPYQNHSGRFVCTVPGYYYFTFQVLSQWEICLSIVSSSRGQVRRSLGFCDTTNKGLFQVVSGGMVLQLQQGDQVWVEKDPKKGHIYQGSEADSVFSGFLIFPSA
T1 sequence (P02746 28-253 limits assumed, chain 2 of 3): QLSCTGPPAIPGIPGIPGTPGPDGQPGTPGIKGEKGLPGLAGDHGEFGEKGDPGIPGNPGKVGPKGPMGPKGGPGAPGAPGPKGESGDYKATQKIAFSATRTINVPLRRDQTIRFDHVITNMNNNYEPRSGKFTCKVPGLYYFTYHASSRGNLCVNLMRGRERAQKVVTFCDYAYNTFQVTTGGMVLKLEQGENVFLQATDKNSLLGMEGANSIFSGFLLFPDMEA
T1 sequence (P02747 29-245 limits assumed, chain 3 of 3): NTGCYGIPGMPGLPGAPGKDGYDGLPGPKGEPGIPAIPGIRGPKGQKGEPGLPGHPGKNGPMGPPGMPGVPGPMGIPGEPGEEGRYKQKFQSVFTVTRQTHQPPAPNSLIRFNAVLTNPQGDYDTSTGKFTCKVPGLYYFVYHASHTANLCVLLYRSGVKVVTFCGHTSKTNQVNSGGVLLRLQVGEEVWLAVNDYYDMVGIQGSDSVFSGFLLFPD

B1: FabA (Fab)
heavy: QVQLVQSGAELKKPGASVKVSCKSSGYHFTSYWMHWVKQAPGQGLEWIGVIHPNSGSINYNEKFESRVTITVDKSTSTAYMELSSLRSEDTAVYYCAGERDSTEVLPMDYWGQGTTVTVSSASTKGPSVFPLAPSSKSTSGGTAALGCLVKDYFPEPVTVSWNSGALTSGVHTFPAVLQSSGLYSLSSVVTVPSSSLGTQTYICNVNHKPSNTKVDKKVEPKSCDKTHT
light: DVQITQSPSSLSASLGERATINCRASKSINKYLAWYQQKPGKAPKLLIYSGSTLQSGIPARFSGSGSGTDFTLTISSLEPEDFAMYYCQQHNEYPLTFGQGTKLEIKRTVAAPSVFIFPPSDEQLKSGTASVVCLLNNFYPREAKVQWKVDNALQSGNSQESVTEQDSKDSTYSLSSTLTLSKADYEKHKVYACEVTHQGLSSPVTKSFNRGEC
notes: also called anti-C1q Fab; anti-C1q antibody Fab fragment
Turning to B1, the binding result was “binds”.
